The source of these data is patent US8138140B2, “Self-assembling peptide amphiphiles and related methods for growth factor delivery” (Northwestern University, priority 2003, dated 2012).

Ends that are not written are not given here. Peptide text beside a SMILES is read from it. * marks the point of attachment. Palmitoyl = CCCCCCCCCCCCCCCC(=O)*; NH(CH2)11CH3 = CCCCCCCCCCCCN*

T2 sequence (P01137 279-390 limits assumed): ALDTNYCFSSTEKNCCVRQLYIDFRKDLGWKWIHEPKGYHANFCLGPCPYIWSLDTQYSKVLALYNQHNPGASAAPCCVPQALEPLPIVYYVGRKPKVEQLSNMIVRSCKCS

The test system of the first data set is laminin-5. The data set is described as follows: Phage display binding sequences. On the set-up: key: * denotes the strongest binders.
Details: not given
As to the method:
(§1) Numerous binding sequences were determined for vascular endothelial growth factor (VEGF), both with 7- and 12-mer phage display kit, basic fibroblast growth factor (FGF-2), neurotrophin-3 (NT-3) and laminin-5; * denotes the strongest binders: […]
On to RYHPHLH, for which the strongest binders result is recorded as “RYHPHLH*”.

For another data set, the system named is vascular endothelial growth factor (VEGF). Nature of the data set: Phage display binding sequences (12-mer kit). On the set-up: key: * denotes the strongest binders. To be noted: 12-mer phage display kit. As to the method:
as §1
For the compound VSILSTIPNSMT, the strongest binders entry is “VSILSTIPNSMT*”. As for PTPLKVRLHSYN, the strongest binders result is reported as “PTPLKVRLHSYN*”. Still for that read-out and setting: with PLTPSALLPIFE the entry was “PLTPSALLPIFE*”.

A further data set concerns mesenchymal stem cells. The data set is described as follows: Mesenchymal stem cells cultured in PA gels with TGF-β1, lineage markers. The format is cell-based, Human. To be noted: TGF-β1 up to 20 ng/ml, 10 days.
On to “Asp(CONHC12)-Val-Val-Val-Ala-Ala-Ala-Lys-Lys-Lys-Ser-Gly-Gly-G-ly-Leu-Pro-Leu-Gly-Gln-Ser-His-NH2 [PA 10]”, for which the “Collagen II expression” value is “higher for the binding gels” and the “α-smooth muscle actin expression” value is “higher in the binding gels than in the nonbinding gels”.

Test system in a further data set: not listed separately
The data set is described as follows: Acid-base (pKa) titrations of PA aggregates. As to conditions: 3 mM, aggregated state.
Description: Acid-Base titrations. pKa titrations were preformed on PAs 1-4 in the range of pH 2-10 with a Fisher Accumet pH meter at a concentration of 3.5 mg/mL in 100 mM KCl. For the acidic PAs 2 and 4, 0.1N KOH was added in 1-5 μL increments, starting at low pH, whereas for the basic PAs 1 and 3, 0.1N HCl was added in 1-5 μL increments, starting at a high pH.
pKa titrations of aggregates of molecules 1-4 were carried out at a concentration of 3 mM. All titrations were started at a pH where the molecules were already in their aggregated state in order to avoid kinetic effects due to self-assembly.
Regarding “Asp(CONHC12)-Val-Val-Val-Ala-Ala-Ala-Glu-Glu-Glu-NH2 (D(NH(CH2)11CH3)VVVAAAEEE-NH2; N-terminus assumed; SMILES CCCCCCCCCCCCNC(=O)C[C@H](N)C(=O)N[C@H](C(=O)N[C@H](C(=O)N[C@H](C(=O)N[C@@H](C)C(=O)N[C@@H](C)C(=O)N[C@@H](C)C(=O)N[C@@H](CCC(=O)O)C(=O)N[C@@H](CCC(=O)O)C(=O)N[C@@H](CCC(=O)O)C(N)=O)C(C)C)C(C)C)C(C)C) [PA 4]”, the “apparent pKa of aggregates (titration curve)” value is listed as “complex curves with transitions occurring over wide ranges”.

On to `CCCCCCCCCCCCCCCC(=O)N[C@H](C(=O)N[C@H](C(=O)N[C@H](C(=O)N[C@@H](C)C(=O)N[C@@H](C)C(=O)N[C@@H](C)C(=O)N[C@@H](CCC(=O)O)C(=O)N[C@@H](CCC(=O)O)C(=O)N[C@@H](CCC(=O)O)C(=O)O)C(C)C)C(C)C)C(C)C` [PA 2] (Palmitoyl-VVVAAAEEE-OH), for which the “apparent pKa of aggregates (titration curve)” value is recorded as “complex curves with transitions occurring over wide ranges”.

The target of another data set is T1, rh-BMP-2 (Homo sapiens, UniProt P12643).
T1 construct: purchased Peprotech
T1 sequence (P12643 283-396): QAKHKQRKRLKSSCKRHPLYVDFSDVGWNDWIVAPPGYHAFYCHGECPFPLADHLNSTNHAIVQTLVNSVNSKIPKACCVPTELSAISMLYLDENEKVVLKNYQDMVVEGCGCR
Nature of the data set: ELISA screening of phage display clones, relative binding strengths. On the set-up: key to relative binding strength of selected clone (numeric coding): highest (1); 2: in decreasing binding strength from highest (1) to lowest (4); 3: in decreasing binding strength from highest (1) to lowest (4); lowest (4). As to conditions: BMP-2 coated plates, ELISA. From the text: (§2) Phage display is typically used to find receptor-blocking peptides, i.e. sequences with high binding constants. To transfer a growth factor from the PA binding site to the cell receptor, an extremely high binding constant is not required and might even be unfavorable. Therefore, the 7-mer commercial phage library was elected over the […], aiming at intermediate binding strengths. Growth factors were physisorbed onto 96-well plates and subsequently exposed to the phage library. After incubation at room temperature for 60 minutes, the unbound phage was removed by rinsing with detergent solution. Bound phage was subsequently eluted by incubating with a growth factor solution for 60 minutes. The recovered phages were amplified for 4 h in E Coli at 37° C. and the panning was repeated two more times. In subsequent panning rounds, the stringency was increased by raising the detergent concentration and reducing the exposure time to the library. The final phage population was plated and the DNA of 10 clones of colonies containing only one phage type were sequenced. Next, ELISA screening was used to test for false positives and determine relative binding strengths of the selected clones. […] (See Table 1, below.)
(§3) Phage display was performed with the Ph.D. 7 kit (New England […]). Fifty microliters of diluted M13-phage library (containing 2×10^9 phages and all possible 7-mer sequences) were added to 96-well microtiter plates, which had been exposed to 50 μl 10 μg/ml growth factor (peprotech) solution for 18 h at 0° C. The plates were blocked for 1 h then incubated at room temperature for 60 minutes with gentle agitation. Unbound phage was removed by rinsing with TBS/Tween-20 (0.1% v/v Tween-20). Bound phage was subsequently eluted by incubating with 50 μl growth factor solution for 60 minutes. The presence of binding phage was determined by serial dilution of the phages and subsequent plating with E. Coli on agar plates. The number of plaques formed can be related to the number of phages in the original mixture. The phages were subsequently amplified for 4 h in E. Coli at 37° C. In subsequent panning rounds, the concentration of Tween-20 was raised to 0.5% and the binding and elution times were decreased and increased, respectively, to increase the stringency of the selection process. After three rounds of panning, the recovered phage mixture is diluted and plated with bacteria on agar. Subsequently, plaques are isolated containing a single DNA sequence. After purification, ten clones were sequenced. Next, ELISA screening was used to eliminate false positives and determine relative binding strengths of the selected clones. Each clone was incubated for 1 h on growth factor coated microtiter plates, the plates were rinsed with TBS/Tween-20 and subsequently HRP-conjugated anti-M13 antibody (Amersham Biosciences) was incubated for 1 h. After addition of ABTS, the absorbance at 450 nm was measured after 30 minutes to determine the relative binding strengths of the isolated clones. The strongest binder was subsequently selected.
In general terms: An ELISA detects its analyte on a solid surface through an enzyme-linked reagent.
Regarding QQTQAQH, the “relative binding strength of selected clone (numeric coding)” value was “QQTQAQH (4)”. Still for that read-out and setting: with YPVHPST the entry was “YPVHPST (1)”; with PFDPPVR, “PFDPPVR (2)”; with KVPPANT, “KVPPANT (3)”. Turning to DVSPAYH, the “relative binding strength of selected clone (numeric coding)” value is given as “DVSPAYH (3)”. Still for that read-out and setting: with PGPTVQG the entry was “PGPTVQG (2)”; with LHYPFMT, “LHYPFMT (3)”; with PIQPDER, “PIQPDER (2)”.

As for WPALFTH, the “relative binding strength of selected clone (numeric coding)” value is reported as “WPALFTH (3)”. Turning to KQALTQT, the “relative binding strength of selected clone (numeric coding)” value is given as “KQALTQT (3)”.

The same data set, now with this note: phage display and ELISA screening.
Consider YPVHPST, for which the “binding to BMP-2 (in words)” value is on record as “best binding epitope”.

A further data set addresses T2, rh-TGF-β1 (Homo sapiens, UniProt P01137).
T2 construct: purchased Peprotech
Described as above. As to conditions: TGF-β1 coated plates, ELISA. On the set-up: key to relative binding strength of selected clone (numeric coding): highest (1); 2: in decreasing binding strength from highest (1) to lowest (4); 3: in decreasing binding strength from highest (1) to lowest (4); lowest (4).
Description: as §2, §3
LPSPIQK: the “relative binding strength of selected clone (numeric coding)” value is “LPSPIQK (2)”.

For the compound GKYPPTS, the “relative binding strength of selected clone (numeric coding)” value is “GKYPPTS (3)”. PAPRWIH: the “relative binding strength of selected clone (numeric coding)” value was “PAPRWIH (3)”. Regarding LPLGNSH, the “relative binding strength of selected clone (numeric coding)” value is recorded as “LPLGNSH (1)”. Same read-out and setting: with RTTSPTA the entry was “RTTSPTA (3)”; with LRNYSHS, “LRNYSHS (3)”; with AWKSVTA, “AWKSVTA (3)”. As for VYRHLPT, the “relative binding strength of selected clone (numeric coding)” value is reported as “VYRHLPT (2)”. The same measure, in the same setting: with RVSTWDT the entry was “RVSTWDT (3)”.

The data set is the same for the next values; noted with them: phage display and ELISA screening.
In the case of LPLGNSH, the “binding to TGF-β1 (in words)” value is reported as “best binding epitope”.
